Assay results from patent US20190185516A1 (YISSUM RESEARCH DEVELOPMENT COMPANY OF THE HEBREW …, published 2019).
Numbered stars: 1 amine (or outer) side, 2 acyl side, 3 side chain; on linkers, the order of the positions; unused ones are H or OH. Bridge positions count the residues as written; N and C are the ends. Square brackets hold non-standard residues; d marks the D form. Ends that are not written are not given here. CO = O=C([*:1])[*:2]; Nlys = NCCCCNCC(=O)O

B1: backbone cyclic peptide 4×4MyDI (Formula IV, m=4, n=4, Z=Trp) (peptide)
peptide: W[Nlys]RDVL[Nlys]GT
modifications: bridge 2-7 via CO; also: backbone cyclization: two amine-terminated 4-methylene arms on Gly2 and Gly7 joined by a urea bond

Target: MyD88, endogenous, in human cell lines (HeLa, U937, THP-1) (human, UniProt Q99836 1-296)
Test: cell-based or functional assay

Chain of MyD88, endogenous, in human cell lines (HeLa, U937, THP-1) (Q99836 whole entry): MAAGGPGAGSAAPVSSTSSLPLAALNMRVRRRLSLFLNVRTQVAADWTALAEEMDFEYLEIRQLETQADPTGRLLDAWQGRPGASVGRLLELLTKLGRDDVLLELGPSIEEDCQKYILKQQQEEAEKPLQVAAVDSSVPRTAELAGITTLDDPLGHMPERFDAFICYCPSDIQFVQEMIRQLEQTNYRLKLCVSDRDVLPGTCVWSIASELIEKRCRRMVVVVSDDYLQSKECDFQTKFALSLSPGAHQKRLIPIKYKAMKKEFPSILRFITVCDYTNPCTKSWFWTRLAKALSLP

Binder | Percent p65 nuclear translocation in HeLa cells, IL-1β
PTDLVRG [scrambled version of the linear MyD88 inhibitor peptide (PTDLVRG)] | 91%
B1 | 27%
RDVLPGT [MyD88 inhibitor linear peptide RDVLPGT] | 20%
